From the RNAGym collection of RNA variant scans (doi:10.1073/pnas.2313332121)

B1: TPR t1 (parent)
chain: GACCAAUCUGCCCUCAGAGCUCGAGAACAUCUUCGGAUGCAGAGGAGGCAGGCUUCGGUGGCGCGAUAGCGCCAACGUCCUCAACCUCCAAUGCAUCCCACCACAUGAUGAUGCCUGAAGAGCCUUGGUUUUUUG

Variants of: B1
Test: polymerase ribozyme fitness, log enrichment relative to wild type (log ratio); higher = more active; in vitro selection for triplet polymerase activity
Summary of the method: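 A single round of triplicate in vitro selection, including frozen incubation at −7 °C, was applied to PCR-built, transcribed mutant libraries of each subunit of a heterodimeric triplet polymerase ribozyme. Illumina sequencing of input and output libraries retained genotypes with ≥10 input reads and ≥1 read per output. Fitness is the base-2 logarithm of genotype enrichment divided by wild-type enrichment, from inverse-variance-weighted replicate averages.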

Variant | polymerase ribozyme fitness (log ratio)
G44U A46U U112C | -0.701
C28U A111C | -3.29
C34U G47A C72U U78A C115A | -6.19
A2G C22U G61A A75U | -4.04
C49U A121C | 1.39
U54A U116G | -1.91
C22A A74U C123A U125G | -5.38
G44C A83U | -0.396
C13A C40U C88U C101A U112A | -2.49
G17A C49G U55C A75U C76U G113U | -7.46
A27G C73A | -2.84
C15A C49U G61A | -1.73
C31U C49U C104U C115A | -4.23
G60C C124G | 0.305
G93C C124U U125C | -1.05
A2C G61A C94U | -0.931
G48C G93U U96A A111G | -5.62
G47U U131G | -1.85
U14G G113U | -5.7
C11A A74G | -1.56
G35U A75U C124A | -4.78
G47A U55A G60U A90U U92A | -2.67
C101A G117C | -5.15
C11A C12A A41G C89U | -2.15

Variant | polymerase ribozyme fitness (log ratio)
A5G G44C A74U U96G | -2.57
C20U G77A | -1.35
U7A A105U C115U | -3.4
C56G G135A | -1.39
A43C G69A U112C G135A | -4.59
G19A C49G G60U C85U A111C | -2.03
C72G C123A | -0.175
C20U G69A | -3.34
C8G C56A G77U C88G U92A G113C G122A C123G | -3.34
G47U C114G | -4.11
A26G G47A C49G G71U | -4.24
C40G G120U | -0.437
C40G G120A | 0.215
G36A U106A C124A U129G | 0.262
C8A G93A | -0.248
G47U C56U G113U | -4.43
A18C C114G | -2.59
C76G | -0.207
A6U G23A G69C C115A U126A U131G | -6.34
C3G C13U G36U G45A C72U U125A G127U U131C | -2.84
C64U C98U G120U | -0.972
C53A G61A C79A | -0.911
G113U A119C | -5.27
U7C G42C U87A | -1.73

Variant | polymerase ribozyme fitness (log ratio)
U54G C72A | -1.41
A6G C22U A43C G45U C94A C124A | -5.87
U9A U96G | -0.342
A5U U54C G60A U112C | 1.52
C3U A6U G57A G120C | 0.153
A5U G63C | -0.837
U9G C104U C124U | 1.88
A74U C104A | -1.82
C88U A118U | 0.45
G17A A41C G117U | -3.91
U92C C101U C104U | -0.793
A16U A50C | -2.04
G51U U55A C72A U129A U133A | -4.5
C12U C72G G117C A119U | -1
C28U A50U C62U A68G U106A G110A C114A | -6.37
C56U U96C | 0.246
C8U G61U C70G | -4.76
C11U C12U A111C G122A | -0.0374
U21C U112A G122C C123U | -0.556
A29G G63A C88A | -2.37
A27U U38C A46U G48A G69U G110U C114U A119G | -6.11
C8U C34U | -3.66
C11A C49A U59A A91G | -2.95
A46C G113A G128A | -4.59

Variant | polymerase ribozyme fitness (log ratio)
G51U A66U A111C | -6.21
C8A G10U C73A | -0.361
C64U A66G | -3.44
G10A C11U C40U C72G C104G C124U U133C | -5.5
U33A G36U | -4.74
C73A C98A | -4.94
C40U G60U G110A | -1.76
C11G G63A C82G G117U C123G | -2.82
C8G U87C A105C C124G | 0.541
C64U U92A | -3.06
C11U G63C C80U | -2.73
A6G G10A | 0.127
G51C G60C | -4.64
C8A G48C C49U C62A C94A | -3.22
U81G U125A | -3.53
A5C A37U G69A C123A G128A | -4.31
G45C G60C U78A C89A G120C G127A | -5.17
G48U G63U C86U | -1.38
C11G G42U C124U | 0.5
C86A C124A | 1.35
G17U C101A G107U G120C G127A U132C | -6.51
C49U G110A | -1.45
G63U A111C | -1.67
G10A C104U | -0.557

Variant | polymerase ribozyme fitness (log ratio)
G36C G120C | 0.237
G17A C73U U112A A119U C123U U125C | -2.9
C13G C56U | -1.58
C53G C73U G113C A121C | -2.12
C15A A41C C72A | -2.94
G60A C85U U106G | -3.68
C49U A103C U112C | -3.22
A5G C94A U129G | -1.49
A29G A105U | -4.23
U33G U59G G110A | -5.54
G61C C115U | -3.07
C20A G120A | -1.89
U67C C88A G117C | -5.9
C94A G127C | -2.37
C34A C72U G110U | -6.56
A43G G47U | -3.37
A5U A121U | 1.1
C64U C86A U129A | -1.99
A6U C70A | -0.922
U59G G60A C85A | -2.54
C62A A75U A111C | -1.81
A95G U125A | -0.382
G58C U112C C114U | -1.68
C64U A74C A75U G110A | -1.89

Variant | polymerase ribozyme fitness (log ratio)
C22G G23A U125A G128U | -4.85
U59C G71C | -3.63
C73U C82U A91U A100U | -3.21
G58C C62A C114A G127A U130G | -6.59
G110U U125A | -0.916
C72G C73U C86G | -5.02
C20A G77A | -3.54
C20A G77U | -3.11
G117C U131G | -4.4
U7C C8G C12U G19C G63A A66U C115A G128C | -4.6
C28U A50U C123U | -3.55
C56G G57C G58A C104A | -3.33
C101A U131C | -0.88
G10A C49A U78C U116A G120U | -0.56
A5U G52U U54A | -1.51
C11G G127C | -0.995
G45U G52A C72U G110C C123U | -6.25
C11U U78C U106G | -2.03
C3A G52U C64U | -2.19
A18C A43U A121G | 0.81
G39U G63A G93U | -3.17
A29G C72A | -1.27
A66U C76U C89G C124U G128U U132C | -5.09
A2C G61A C82G | -2.65

Variant | polymerase ribozyme fitness (log ratio)
U7C A37U A41C G47U C53G G65A C85G A95C A111G A118U | -7.71
G63A A84U C115A U125G | -0.899
C11G C80A G117C C123U | -7.43
C11G A18C U125A | -2.13
C72G C85G | -1.98
U21A C62U A119U | -0.733
C3U G47U A105G | -4.56
C62A C101U C114U C124A | -3.63
C12A C20A G113U C115U U131A | -3.38
G19C G48U | -2.5
G71U U131A | 0.00469
G10A C76G G120A | 1.28
G19A G60A G93U | -3.84
C28U C70U | -2.13
C11U C89A | -2.85
C40U A68U A74U C97U C102A A111G | -7.15
U81C | -0.208
G42A C115A U130G | -2.13
C12U C13U C70U G71C U96A U112G U131C | -4
G52U C64U C82G | -2.19
A2C C11A G48U C72U C80U G120U | -3.83
A24G G128U | -4.32
U38A C102A | -4.22
